We go through three substances from paper PMC9051087.

Values joined by “and” are separate entries in the source; they are usually repeats but may differ in a detail not shown here. Equal values may be shown once.

Test [1] deals with Thermococcus celer HARP (Thermococcus celer). In words: SEC; TcHARP at higher salt (200–500 mM); Superdex 200 Increase 10/300 GL, 20 mM Tris-HCl pH 8.0.
Test [2] has as its target PbHARP A118E/A121E mutant (Planctomycetes bacterium GWF2_40_8). In words: SEC; PbHARP wild type and mutants; Superdex 200 Increase 10/300 GL, 20 mM Tris-HCl pH 8.0, 300–500 mM salt for the wild type (it precipitates at lower salt); 300 ug protein, 0.4 mL/min. A general note: In gel filtration, larger molecules generally elute earlier.
Test [3] deals with Planctomycetes bacterium HARP (homolog of Aquifex RNase P) (Planctomycetes bacterium GWF2_40_8). The test is described as above.
Test [4] has the same target. In words: cross-linking; BS3 (0, 0.01, 0.03 mM), 25 °C 1 h, 37.6 uM PbHARP without or with 45.1 uM His-7bp pre-tRNA and 10 mM CaCl2; 20 mM HEPES pH 7.9, 500 mM NaCl; SDS-PAGE.

Take Thermococcus celer HARP (enzyme): the stoichiometry N – broadly, the number of molecules, sites or subunits per partner or assembly – in test [1] was found to be 2.
Turning to PbHARP A118E/A121E mutant (enzyme), in test [2], the stoichiometry N worked out at 2.
Turning to “Planctomycetes bacterium HARP (homolog of Aquifex RNase P) (enzyme)”, the stoichiometry N in test [3] is 2; in test [4], 2 and 4.
